T1: EsCas13d, nuclease-dead (Eubacterium siraeum, UniProt B0MS50, R295A;H300A;R849A;H854A)
T1 sequence: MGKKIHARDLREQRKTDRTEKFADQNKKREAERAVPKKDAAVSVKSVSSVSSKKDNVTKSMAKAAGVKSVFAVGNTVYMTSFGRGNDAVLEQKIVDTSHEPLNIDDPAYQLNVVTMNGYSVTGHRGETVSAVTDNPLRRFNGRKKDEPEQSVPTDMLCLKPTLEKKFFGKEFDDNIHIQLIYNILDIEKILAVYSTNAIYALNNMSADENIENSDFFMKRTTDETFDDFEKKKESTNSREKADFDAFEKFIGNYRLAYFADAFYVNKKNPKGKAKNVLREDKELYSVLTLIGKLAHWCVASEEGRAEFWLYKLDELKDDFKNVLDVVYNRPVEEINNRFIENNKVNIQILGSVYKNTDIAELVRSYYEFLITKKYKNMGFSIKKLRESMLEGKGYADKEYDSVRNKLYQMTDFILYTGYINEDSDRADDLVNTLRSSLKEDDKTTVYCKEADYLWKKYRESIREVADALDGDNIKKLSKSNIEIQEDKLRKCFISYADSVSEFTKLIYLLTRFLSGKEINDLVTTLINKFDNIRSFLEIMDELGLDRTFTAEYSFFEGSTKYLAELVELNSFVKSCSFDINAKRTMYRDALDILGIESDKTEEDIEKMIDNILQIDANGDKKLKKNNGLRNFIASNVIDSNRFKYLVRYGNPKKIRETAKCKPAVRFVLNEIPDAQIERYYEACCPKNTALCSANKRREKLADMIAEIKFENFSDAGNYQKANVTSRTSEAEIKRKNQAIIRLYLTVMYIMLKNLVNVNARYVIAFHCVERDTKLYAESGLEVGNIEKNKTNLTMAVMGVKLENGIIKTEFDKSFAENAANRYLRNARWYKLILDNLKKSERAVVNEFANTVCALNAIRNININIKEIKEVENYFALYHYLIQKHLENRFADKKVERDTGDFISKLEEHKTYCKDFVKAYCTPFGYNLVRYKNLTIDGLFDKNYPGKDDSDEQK


Molecular target: T1, EsCas13d, nuclease-dead
Assay: crRNA (strand 1, pre-loaded); Mg2+; 40 mM Tris-HCl pH 7.5, 150 mM NaCl, 6 mM MgCl2, 1 mM DTT, 0.1% Tween-20, 0.2 mg/ml BSA; 25 C; 10 min per concentration, then washed
Conditions: tags: His6-TwinStrep-SUMO cleaved; N-terminal SNAP kept (SNAP-Surface 488); label: 3' end held by stalled T7 RNA polymerase

Row | Binder | Kd [nM]
1 | target 1 insA 3' of 5,insA 3' of 4 (mixed) RNA 1: CACCCGUGCAAAAAUGCAGGGGUCUAAAACUGAGCGGAUAACCUCUCUAUGG RNA 2: GGGAAUGGAUCCACAUCUACGAAUUCGUACCAUAGAGAGGUUAUCCGACAUCACCGAGAUCGGAAGAGCACACGU | 9.8 ± 1.1
2 | target 1 insC 3' of 22,insG 3' of 4 (mixed) RNA 1: CACCCGUGCAAAAAUGCAGGGGUCUAAAACUGAGCGGAUAACCUCUCUAUGG RNA 2: GGGAAUGGAUCCACAUCUACGAAUUCGUACCCAUAGAGAGGUUAUCCGCGUCACCGAGAUCGGAAGAGCACACGU | 12.8 ± 1.1
3 | target 1 MT 5'PFS AAU 3'PFS CAU (mixed) RNA 1: CACCCGUGCAAAAAUGCAGGGGUCUAAAACUGAGCGGAUAACCUCUCUAUGG RNA 2: GGGAAUGGAUCCACAUCUACGAAUUCAAUCCAUAGAGAGGUUAUCCGCUCACAUAGAUCGGAAGAGCACACGU | 100 ± 45
4 | target 1 insA 3' of 7,insC 3' of 3 (mixed) RNA 1: CACCCGUGCAAAAAUGCAGGGGUCUAAAACUGAGCGGAUAACCUCUCUAUGG RNA 2: GGGAAUGGAUCCACAUCUACGAAUUCGUACCAUAGAGAGGUUAUCACGCUCCACCGAGAUCGGAAGAGCACACGU | 6.32 ± 0.25
5 | target 1 insC 3' of 16,insC 3' of 8 (mixed) RNA 1: CACCCGUGCAAAAAUGCAGGGGUCUAAAACUGAGCGGAUAACCUCUCUAUGG RNA 2: GGGAAUGGAUCCACAUCUACGAAUUCGUACCAUAGACGAGGUUAUCCCGCUCACCGAGAUCGGAAGAGCACACGU | ~90
6 | target 1 insA 3' of 8,insA 3' of 2 (mixed) RNA 1: CACCCGUGCAAAAAUGCAGGGGUCUAAAACUGAGCGGAUAACCUCUCUAUGG RNA 2: GGGAAUGGAUCCACAUCUACGAAUUCGUACCAUAGAGAGGUUAUACCGCUCAACCGAGAUCGGAAGAGCACACGU | 17.9 ± 0.6
7 | target 1 C6U,A18C (mixed) RNA 1: CACCCGUGCAAAAAUGCAGGGGUCUAAAACUGAGCGGAUAACCUCUCUAUGG RNA 2: GGGAAUGGAUCCACAUCUACGAAUUCGUACCAUCGAGAGGUUAUCUGCUCACCGAGAUCGGAAGAGCACACGU | 58 ± 7
8 | target 1 insC 3' of 17,insA 3' of 5 (mixed) RNA 1: CACCCGUGCAAAAAUGCAGGGGUCUAAAACUGAGCGGAUAACCUCUCUAUGG RNA 2: GGGAAUGGAUCCACAUCUACGAAUUCGUACCAUAGCAGAGGUUAUCCGACUCACCGAGAUCGGAAGAGCACACGU | 23 ± 4
9 | target 1 insA 3' of 8,insU 3' of 1 (mixed) RNA 1: CACCCGUGCAAAAAUGCAGGGGUCUAAAACUGAGCGGAUAACCUCUCUAUGG RNA 2: GGGAAUGGAUCCACAUCUACGAAUUCGUACCAUAGAGAGGUUAUACCGCUCAUCCGAGAUCGGAAGAGCACACGU | 12.9 ± 0.6
10 | target 1 insA 3' of 21,insA 3' of 21 (mixed) RNA 1: CACCCGUGCAAAAAUGCAGGGGUCUAAAACUGAGCGGAUAACCUCUCUAUGG RNA 2: GGGAAUGGAUCCACAUCUACGAAUUCGUACCAAAUAGAGAGGUUAUCCGCUCACCGAGAUCGGAAGAGCACACGU | 15.4 ± 0.8
11 | target 1 MT 5'PFS UAG 3'PFS UUU (mixed) RNA 1: CACCCGUGCAAAAAUGCAGGGGUCUAAAACUGAGCGGAUAACCUCUCUAUGG RNA 2: GGGAAUGGAUCCACAUCUACGAAUUCUAGCCAUAGAGAGGUUAUCCGCUCAUUUAGAUCGGAAGAGCACACGU | 23.4 ± 3.05
12 | target 1 A16G (mixed) RNA 1: CACCCGUGCAAAAAUGCAGGGGUCUAAAACUGAGCGGAUAACCUCUCUAUGG RNA 2: GGGAAUGGAUCCACAUCUACGAAUUCGUACCAUAGGGAGGUUAUCCGCUCACCGAGAUCGGAAGAGCACACGU | 29.4 ± 1.4
13 | target 1 MT 5'PFS GAA 3'PFS CAU (mixed) RNA 1: CACCCGUGCAAAAAUGCAGGGGUCUAAAACUGAGCGGAUAACCUCUCUAUGG RNA 2: GGGAAUGGAUCCACAUCUACGAAUUCGAACCAUAGAGAGGUUAUCCGCUCACAUAGAUCGGAAGAGCACACGU | ~95
14 | target 1 MT 5'PFS GGC 3'PFS UUG (mixed) RNA 1: CACCCGUGCAAAAAUGCAGGGGUCUAAAACUGAGCGGAUAACCUCUCUAUGG RNA 2: GGGAAUGGAUCCACAUCUACGAAUUCGGCCCAUAGAGAGGUUAUCCGCUCAUUGAGAUCGGAAGAGCACACGU | 9 ± 1.2
15 | target 1 MT 5'PFS UGC 3'PFS AAA (mixed) RNA 1: CACCCGUGCAAAAAUGCAGGGGUCUAAAACUGAGCGGAUAACCUCUCUAUGG RNA 2: GGGAAUGGAUCCACAUCUACGAAUUCUGCCCAUAGAGAGGUUAUCCGCUCAAAAAGAUCGGAAGAGCACACGU | ~50
16 | target 1 MT 5'PFS CUG 3'PFS CAC (mixed) RNA 1: CACCCGUGCAAAAAUGCAGGGGUCUAAAACUGAGCGGAUAACCUCUCUAUGG RNA 2: GGGAAUGGAUCCACAUCUACGAAUUCCUGCCAUAGAGAGGUUAUCCGCUCACACAGAUCGGAAGAGCACACGU | 5.25 ± 1.6
17 | target 1 MT 5'PFS UGC 3'PFS AAC (mixed) RNA 1: CACCCGUGCAAAAAUGCAGGGGUCUAAAACUGAGCGGAUAACCUCUCUAUGG RNA 2: GGGAAUGGAUCCACAUCUACGAAUUCUGCCCAUAGAGAGGUUAUCCGCUCAAACAGAUCGGAAGAGCACACGU | ~40
18 | target 1 insU 3' of 21,insA 3' of 6 (mixed) RNA 1: CACCCGUGCAAAAAUGCAGGGGUCUAAAACUGAGCGGAUAACCUCUCUAUGG RNA 2: GGGAAUGGAUCCACAUCUACGAAUUCGUACCUAUAGAGAGGUUAUCCAGCUCACCGAGAUCGGAAGAGCACACGU | 28.2 ± 2.3
19 | target 1 U8G,G12U (mixed) RNA 1: CACCCGUGCAAAAAUGCAGGGGUCUAAAACUGAGCGGAUAACCUCUCUAUGG RNA 2: GGGAAUGGAUCCACAUCUACGAAUUCGUACCAUAGAGAGUUUAGCCGCUCACCGAGAUCGGAAGAGCACACGU | 11.8 ± 1.3
20 | target 1 A16C,A20U (mixed) RNA 1: CACCCGUGCAAAAAUGCAGGGGUCUAAAACUGAGCGGAUAACCUCUCUAUGG RNA 2: GGGAAUGGAUCCACAUCUACGAAUUCGUACCUUAGCGAGGUUAUCCGCUCACCGAGAUCGGAAGAGCACACGU | 85 ± 29
21 | target 1 MT 5'PFS UAG 3'PFS UUA (mixed) RNA 1: CACCCGUGCAAAAAUGCAGGGGUCUAAAACUGAGCGGAUAACCUCUCUAUGG RNA 2: GGGAAUGGAUCCACAUCUACGAAUUCUAGCCAUAGAGAGGUUAUCCGCUCAUUAAGAUCGGAAGAGCACACGU | 18.4 ± 3.7
22 | target 1 MT 5'PFS UAG 3'PFS UUG (mixed) RNA 1: CACCCGUGCAAAAAUGCAGGGGUCUAAAACUGAGCGGAUAACCUCUCUAUGG RNA 2: GGGAAUGGAUCCACAUCUACGAAUUCUAGCCAUAGAGAGGUUAUCCGCUCAUUGAGAUCGGAAGAGCACACGU | 12.9 ± 1.1
23 | target 1 insA 3' of 17,insC 3' of 11 (mixed) RNA 1: CACCCGUGCAAAAAUGCAGGGGUCUAAAACUGAGCGGAUAACCUCUCUAUGG RNA 2: GGGAAUGGAUCCACAUCUACGAAUUCGUACCAUAGAAGAGGUCUAUCCGCUCACCGAGAUCGGAAGAGCACACGU | 51 ± 10
24 | target 1 MT 5'PFS UAU 3'PFS UGC (mixed) RNA 1: CACCCGUGCAAAAAUGCAGGGGUCUAAAACUGAGCGGAUAACCUCUCUAUGG RNA 2: GGGAAUGGAUCCACAUCUACGAAUUCUAUCCAUAGAGAGGUUAUCCGCUCAUGCAGAUCGGAAGAGCACACGU | ~59.5
25 | target 1 insA 3' of 17,insA 3' of 3 (mixed) RNA 1: CACCCGUGCAAAAAUGCAGGGGUCUAAAACUGAGCGGAUAACCUCUCUAUGG RNA 2: GGGAAUGGAUCCACAUCUACGAAUUCGUACCAUAGAAGAGGUUAUCCGCUACACCGAGAUCGGAAGAGCACACGU | 11.7 ± 0.4
26 | target 1 MT 5'PFS AAG 3'PFS UCU (mixed) RNA 1: CACCCGUGCAAAAAUGCAGGGGUCUAAAACUGAGCGGAUAACCUCUCUAUGG RNA 2: GGGAAUGGAUCCACAUCUACGAAUUCAAGCCAUAGAGAGGUUAUCCGCUCAUCUAGAUCGGAAGAGCACACGU | 12.1 ± 3.65
27 | target 1 MT 5'PFS GUG 3'PFS GCU (mixed) RNA 1: CACCCGUGCAAAAAUGCAGGGGUCUAAAACUGAGCGGAUAACCUCUCUAUGG RNA 2: GGGAAUGGAUCCACAUCUACGAAUUCGUGCCAUAGAGAGGUUAUCCGCUCAGCUAGAUCGGAAGAGCACACGU | 7 ± 0.7
28 | target 1 MT 5'PFS UAG 3'PFS UUC (mixed) RNA 1: CACCCGUGCAAAAAUGCAGGGGUCUAAAACUGAGCGGAUAACCUCUCUAUGG RNA 2: GGGAAUGGAUCCACAUCUACGAAUUCUAGCCAUAGAGAGGUUAUCCGCUCAUUCAGAUCGGAAGAGCACACGU | 18.9 ± 3.85

— PMC10786891, “Massively parallel profiling of RNA-targeting CRISPR-Cas13d”
